Measurements taken from paper PMC9482650, “Quantitative fragmentomics allow affinity mapping of interactomes” (Nature Communications, 2022).

How the values were obtained:
Test in all cases: holdup assay
Set-up in all cases: key: below the threshold = too weak to quantify, mostly under pKd 3.1 to 4
Conditions in all cases: plain residues with an end cap or a label only (N-terminal biotin on a linker: ttds)
DVL2, O14641 = molecular target: DVL2, O14641
Q13368 = molecular target: Q13368
MAST3, O60307 = molecular target: MAST3, O60307
Chain of MAST3, O60307 (O60307 945-1048): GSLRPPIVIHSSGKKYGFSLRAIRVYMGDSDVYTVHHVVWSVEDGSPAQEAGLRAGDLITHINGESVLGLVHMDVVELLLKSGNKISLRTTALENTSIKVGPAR

MAGI3_5, Q5TCQ9 = molecular target: MAGI3_5, Q5TCQ9
Chain of MAGI3_5, Q5TCQ9 (Q5TCQ9 847-941): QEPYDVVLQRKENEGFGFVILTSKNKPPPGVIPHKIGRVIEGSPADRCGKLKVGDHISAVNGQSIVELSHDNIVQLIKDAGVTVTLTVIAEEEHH

Q9H190 = molecular target: Q9H190
PDZD2_6, O15018 = molecular target: T1, PDZD2_6, O15018
T1 sequence (O15018 2745-2839, limits assumed, looked up): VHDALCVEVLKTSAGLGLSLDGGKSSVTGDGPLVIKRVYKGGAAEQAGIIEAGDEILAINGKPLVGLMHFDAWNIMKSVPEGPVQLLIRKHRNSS

GRIP1_1, Q9Y3R0 = molecular target: T2, GRIP1_1, Q9Y3R0
T2 sequence (Q9Y3R0 48-146, limits assumed, looked up): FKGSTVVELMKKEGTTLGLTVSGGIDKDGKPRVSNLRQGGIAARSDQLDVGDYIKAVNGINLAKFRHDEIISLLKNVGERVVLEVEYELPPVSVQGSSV

PREX2_2, Q70Z35 = molecular target: T3, PREX2_2, Q70Z35
T3 sequence (Q70Z35 672-764, limits assumed, looked up): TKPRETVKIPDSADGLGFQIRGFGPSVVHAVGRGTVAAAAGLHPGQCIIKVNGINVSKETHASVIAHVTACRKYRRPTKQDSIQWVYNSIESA

MPP1, Q00013 = molecular target: T4, MPP1, Q00013
T4 sequence (Q00013 66-162, limits assumed, looked up): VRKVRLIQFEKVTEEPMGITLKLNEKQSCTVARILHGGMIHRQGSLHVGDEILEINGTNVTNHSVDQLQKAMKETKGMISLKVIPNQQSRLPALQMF

MAGI1_6, Q96QZ7 = molecular target: MAGI1_6, Q96QZ7
Chain of MAGI1_6, Q96QZ7 (Q96QZ7 1146-1238): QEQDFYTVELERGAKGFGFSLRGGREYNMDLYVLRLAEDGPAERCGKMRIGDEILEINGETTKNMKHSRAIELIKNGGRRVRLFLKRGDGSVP

PDZD8, Q8NEN9 = molecular target: T5, PDZD8, Q8NEN9
T5 sequence (Q8NEN9 361-459, limits assumed, looked up): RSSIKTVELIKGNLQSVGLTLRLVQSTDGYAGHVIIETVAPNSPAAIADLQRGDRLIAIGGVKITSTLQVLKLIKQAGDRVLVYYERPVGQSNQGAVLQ

Q13009 = molecular target: Q13009
PREX1_1, Q8TCU6 = molecular target: PREX1_1, Q8TCU6
Chain of PREX1_1, Q8TCU6 (Q8TCU6 608-718): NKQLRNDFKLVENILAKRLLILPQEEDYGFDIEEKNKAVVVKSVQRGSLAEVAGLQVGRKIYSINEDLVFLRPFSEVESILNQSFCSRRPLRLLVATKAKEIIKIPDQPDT

PARD6B, Q9BYG5 = molecular target: T6, PARD6B, Q9BYG5
T6 sequence (Q9BYG5 152-260, limits assumed, looked up): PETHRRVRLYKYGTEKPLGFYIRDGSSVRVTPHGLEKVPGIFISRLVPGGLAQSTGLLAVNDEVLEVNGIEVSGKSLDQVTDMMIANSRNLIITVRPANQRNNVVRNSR

PDZD4, Q76G19 = molecular target: T7, PDZD4, Q76G19
T7 sequence (Q76G19 125-224, limits assumed, looked up): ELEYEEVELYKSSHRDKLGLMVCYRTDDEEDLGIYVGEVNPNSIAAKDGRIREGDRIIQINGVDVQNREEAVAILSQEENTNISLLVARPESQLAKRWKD

SNTB2, Q13425 = molecular target: T8, SNTB2, Q13425
T8 sequence (Q13425 110-208, limits assumed, looked up): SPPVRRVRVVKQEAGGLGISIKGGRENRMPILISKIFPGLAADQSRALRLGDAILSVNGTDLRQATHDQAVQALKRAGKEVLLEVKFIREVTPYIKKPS

PTPN13_5, Q12923 = molecular target: T9, PTPN13_5, Q12923
T9 sequence (Q12923 1877-1975, limits assumed, looked up): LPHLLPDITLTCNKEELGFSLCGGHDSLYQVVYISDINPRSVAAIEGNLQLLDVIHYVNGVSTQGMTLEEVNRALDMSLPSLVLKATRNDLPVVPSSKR

PDZD7_1, Q9H5P4 = molecular target: T10, PDZD7_1, Q9H5P4
T10 sequence (Q9H5P4 81-178, limits assumed, looked up): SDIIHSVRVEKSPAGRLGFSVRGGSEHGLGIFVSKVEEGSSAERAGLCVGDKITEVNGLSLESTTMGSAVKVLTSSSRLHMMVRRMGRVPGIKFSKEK

PARD3_1, Q8TEW0 = molecular target: PARD3_1, Q8TEW0
Chain of PARD3_1, Q8TEW0 (Q8TEW0 264-372): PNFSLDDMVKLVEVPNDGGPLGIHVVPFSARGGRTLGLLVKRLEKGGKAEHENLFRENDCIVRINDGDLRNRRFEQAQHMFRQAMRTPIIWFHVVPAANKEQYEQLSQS

LNX2_4, Q8N448 = molecular target: T11, LNX2_4, Q8N448
T11 sequence (Q8N448 595-690, limits assumed, looked up): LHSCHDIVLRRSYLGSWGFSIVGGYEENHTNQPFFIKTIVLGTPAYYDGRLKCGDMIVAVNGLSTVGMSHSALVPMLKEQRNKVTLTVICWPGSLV

PDZD9, Q8IXQ8 = molecular target: PDZD9, Q8IXQ8
Chain of PDZD9, Q8IXQ8 (Q8IXQ8 23-120): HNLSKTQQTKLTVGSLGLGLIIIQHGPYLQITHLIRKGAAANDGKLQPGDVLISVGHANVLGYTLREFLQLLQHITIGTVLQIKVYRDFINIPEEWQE

DVL1, O14640 = molecular target: T12, DVL1, O14640
T12 sequence (O14640 246-333, limits assumed, looked up): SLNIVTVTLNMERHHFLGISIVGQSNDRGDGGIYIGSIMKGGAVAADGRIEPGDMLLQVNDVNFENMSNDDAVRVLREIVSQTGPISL

GIPC1, O14908 = molecular target: T13, GIPC1, O14908
T13 sequence (O14908 128-223, limits assumed, looked up): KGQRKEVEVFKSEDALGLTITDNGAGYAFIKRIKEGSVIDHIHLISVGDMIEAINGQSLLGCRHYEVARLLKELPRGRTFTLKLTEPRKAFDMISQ

SHROOM2, Q13796 = molecular target: T14, SHROOM2, Q13796
T14 sequence (Q13796 21-118, limits assumed, looked up): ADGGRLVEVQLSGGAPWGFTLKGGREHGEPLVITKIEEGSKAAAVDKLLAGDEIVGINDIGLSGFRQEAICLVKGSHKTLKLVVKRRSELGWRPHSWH

Chain of DVL2, O14641 (O14641 260-359): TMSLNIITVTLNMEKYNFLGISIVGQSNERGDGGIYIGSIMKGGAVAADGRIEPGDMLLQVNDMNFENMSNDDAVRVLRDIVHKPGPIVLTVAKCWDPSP

- pKd (DVL2, O14641): below the threshold
- pKd (Q13368): below the threshold
- pKd (MAST3, O60307): below the threshold
- pKd (MAGI3_5, Q5TCQ9): below the threshold
- pKd (Q9H190): below the threshold
- pKd (PDZD2_6, O15018): below the threshold
- pKd (GRIP1_1, Q9Y3R0): below the threshold
- pKd (PREX2_2, Q70Z35): below the threshold
- pKd (MPP1, Q00013): 4.01
- pKd (MAGI1_6, Q96QZ7): below the threshold
- pKd (PDZD8, Q8NEN9): below the threshold
- pKd (Q13009): below the threshold
- pKd (PREX1_1, Q8TCU6): below the threshold
- pKd (PARD6B, Q9BYG5): below the threshold
- pKd (PDZD4, Q76G19): below the threshold
- pKd (SNTB2, Q13425): 3.94
- pKd (PTPN13_5, Q12923): below the threshold
- pKd (PDZD7_1, Q9H5P4): below the threshold
- pKd (PARD3_1, Q8TEW0): below the threshold
- pKd (LNX2_4, Q8N448): below the threshold
- pKd (PDZD9, Q8IXQ8): below the threshold
- pKd (DVL1, O14640): below the threshold
- pKd (GIPC1, O14908): 3.78
- pKd (SHROOM2, Q13796): below the threshold
Binder: PSRDRKETSI [RALBP1, Q15311]
